Measurements taken from publication PMC8208711.

Biological target: human wild-type full-length CC chemokine receptor 5 (CCR5) (human) (UniProt P51681)

Substance	Ca2+ flux in HEK-CCR5 cells, decrease of Emax against [6P4]CCL5 [%]
[6P4]CCL5 D5K (ligand)	60
[6P4]CCL5 D5A (ligand)	30
